Reference: patent US20200317768A1 (published 2020)
Where a chain is given by its changes, count along the chain named. In names and notes the source's numbering stands.

T1: cynomolgus monkey FcγRIIb extracellular domain, C-terminal His-tag (cynomolgus monkey)
T1 construct: also called cyno FcγRIIb; cynoFcγRIIb; not shown: His-tag added to C-terminus
T1 chain: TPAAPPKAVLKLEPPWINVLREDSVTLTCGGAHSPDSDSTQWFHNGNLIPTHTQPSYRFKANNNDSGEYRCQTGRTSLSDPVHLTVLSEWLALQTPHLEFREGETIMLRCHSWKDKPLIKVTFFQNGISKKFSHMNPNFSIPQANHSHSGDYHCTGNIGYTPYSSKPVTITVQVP

T2: human FcγRIIb extracellular domain, C-terminal His-tag (human, UniProt P31994 43-217)
T2 construct: also called humanFcgRIIb; not shown: His-tag added to C-terminus
T2 sequence: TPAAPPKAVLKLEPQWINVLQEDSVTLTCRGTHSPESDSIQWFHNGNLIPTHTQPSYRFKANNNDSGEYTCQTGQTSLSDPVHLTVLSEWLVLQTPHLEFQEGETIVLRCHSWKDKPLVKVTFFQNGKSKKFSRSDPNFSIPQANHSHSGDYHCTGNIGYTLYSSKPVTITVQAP

T3: cynomolgus monkey FcγRIIa1 extracellular domain, C-terminal His-tag (cynomolgus monkey)
T3 construct: also called cyno FcγRIIa1; cynoFcgRIIa1; not shown: His-tag added to C-terminus
T3 chain: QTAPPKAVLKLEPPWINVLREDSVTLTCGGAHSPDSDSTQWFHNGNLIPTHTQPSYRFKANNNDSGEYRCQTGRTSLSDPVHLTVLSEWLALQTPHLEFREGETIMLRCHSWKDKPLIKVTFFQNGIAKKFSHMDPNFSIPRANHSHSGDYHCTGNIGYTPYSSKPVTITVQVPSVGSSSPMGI

T4: cynomolgus monkey FcγRIIa3 extracellular domain, C-terminal His-tag (cynomolgus monkey)
T4 construct: also called cyno FcγRIIa3; cynoFcgRIIa3; not shown: His-tag added to C-terminus
T4 chain: T3 chain with P95T, T121A, A128S, H133P, D135N

T5: cynomolgus monkey FcγRIIa2 extracellular domain, C-terminal His-tag (cynomolgus monkey)
T5 construct: also called cyno FcγRIIa2; cynoFcgRIIa2; not shown: His-tag added to C-terminus
T5 chain: T3 chain with P95T, T121A, I127K, A128S, K130N, D135N, R142Q

T6: human FcγRIIaR extracellular domain, C-terminal His-tag (human, UniProt P12318 34-217)
T6 construct: also called human FcγRIIa (type R); FcgRIIaR; not shown: His-tag added to C-terminus
T6 chain: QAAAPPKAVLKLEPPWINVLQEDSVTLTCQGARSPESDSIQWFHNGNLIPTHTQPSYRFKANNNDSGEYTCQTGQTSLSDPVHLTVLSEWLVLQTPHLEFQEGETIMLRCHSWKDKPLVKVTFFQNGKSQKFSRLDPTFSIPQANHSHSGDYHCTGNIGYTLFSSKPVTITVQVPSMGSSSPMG

T7: human FcγRIIaH extracellular domain, C-terminal His-tag (human, UniProt P12318 34-217)
T7 construct: also called human FcγRIIa (type H); FcgRIIaH; not shown: His-tag added to C-terminus
T7 sequence: T6 chain with R134H

B1: MS_M103205H795-SG1/M103202L889-SK1 (antibody, human IgG1, kappa)
heavy: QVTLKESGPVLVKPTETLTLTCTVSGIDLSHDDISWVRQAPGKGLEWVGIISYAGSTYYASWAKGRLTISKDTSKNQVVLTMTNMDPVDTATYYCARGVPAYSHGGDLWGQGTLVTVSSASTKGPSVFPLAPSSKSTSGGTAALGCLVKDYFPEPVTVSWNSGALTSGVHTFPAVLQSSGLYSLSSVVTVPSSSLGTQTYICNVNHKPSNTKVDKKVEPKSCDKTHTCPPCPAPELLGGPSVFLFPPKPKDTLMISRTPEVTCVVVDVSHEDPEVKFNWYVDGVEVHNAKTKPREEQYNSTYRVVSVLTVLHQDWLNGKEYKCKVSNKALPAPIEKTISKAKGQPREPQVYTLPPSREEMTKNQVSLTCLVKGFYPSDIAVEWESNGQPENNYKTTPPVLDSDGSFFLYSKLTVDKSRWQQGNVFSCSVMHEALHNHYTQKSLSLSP
light: DIVMTQSPATLSLSPGERATLSCTSSQSVYHANWLSWFQQKPGQPPKLLIYWASTLAYGVPSRFSGSGSGTDFTLTISSLQPEDAATYYCAGGYGGGRYAFGQGTKVEIKRTVAAPSVFIFPPSDEQLKSGTASVVCLLNNFYPREAKVQWKVDNALQSGNSQESVTEQDSKDSTYSLSSTLTLSKADYEKHKVYACEVTHQGLSSPVTKSFNRGEC
notes: Parent antibody with SG1 human heavy chain constant region; also called MS1032LO06-SG1
B2: M103205H795-MY351 / M103202L889-SK1 (antibody, human IgG1, kappa)
heavy: QVTLKESGPVLVKPTETLTLTCTVSGIDLSHDDISWVRQAPGKGLEWVGIISYAGSTYYASWAKGRLTISKDTSKNQVVLTMTNMDPVDTATYYCARGVPAYSHGGDLWGQGTLVTVSSASTKGPSVFPLAPSSKSTSGGTAALGCLVKDYFPEPVTVSWNSGALTSGVHTFPAVLQSSGLYSLSSVVTVPSSSLGTQTYICNVNHKPSNTKVDKKVEPKSCDKTHTCPPCPAPELLNGPSVFLFPPKPKDTLMISRTPEVTCVVVDVSDEDPEVKFNWYVDGVEVHNAKTKPREEQYNSTYRVVSVLTVLHRDWLNGKEYKCKVSNKALPKPIEKTISKAKGQPREPQVYTLPPSREEMTKNQVSLTCLVKGFYPSDIAVEWESNGQPENNYKTTPPVLDSDGSFFLYSKLTVKKSRWQQGNVFSCSVMHEALHNHYTQKSLSLSP
light: B1 light
notes: CH with G236N/H268D/Q311R/A330K/D413K against SG1 (EU numbering); also called MS1032LO06-MY351
B3: M103205H795-MY344 / M103202L889-SK1 (antibody, human IgG1, kappa)
heavy: B2 heavy with Q297L
light: B1 light
notes: CH with G236N/H268D/Q295L/Q311R/A330K/D413K against SG1 (EU numbering); also called MS1032LO06-MY344
B4: M103205H795-MY205 / M103202L889-SK1 (antibody, human IgG1, kappa)
heavy: B2 heavy with Q297L, R313Q, K415D
light: B1 light
notes: CH with G236N/H268D/Q295L/A330K against SG1 (EU numbering); also called MS1032LO06-MY205
B5: M103205H795-MY101 / M103202L889-SK1 (antibody, human IgG1, kappa)
heavy: B2 heavy with D270E, R313Q, P398M, K415D
light: B1 light
notes: CH with G236N/H268E/A330K/P396M against SG1 (EU numbering); also called MS1032LO06-MY101
B6: M103205H795-PK2 / M103202L889-SK1 (antibody, human IgG1, kappa)
heavy: B2 heavy with D270E, R313Q, P398M, S402R
light: B1 light
notes: CH with G236N/H268E/A330K/P396M/S400R/D413K against SG1 (EU numbering); also called MS1032LO06-PK2; MS103205H795-PK2
B7: M103205H795-MY335 / M103202L889-SK1 (antibody, human IgG1, kappa)
heavy: B2 heavy with N238T
light: B1 light
notes: CH with G236T/H268D/Q311R/A330K/D413K against SG1 (EU numbering); also called MS1032LO06-MY335
B8: M103205H795-MY201 / M103202L889-SK1 (antibody, human IgG1, kappa)
heavy: B2 heavy with R313Q, K415D
light: B1 light
notes: CH with G236N/H268D/A330K against SG1 (EU numbering); also called MS1032LO06-MY201

Columns and labels:
[1] = molecular target: T8, cynomolgus monkey FcγRIIIaS extracellular domain, C-terminal His-tag (cynomolgus monkey, UniProt A3RFZ7 21-206 (rhesus entry)); assay: SPR (BIACORE); KD of SG1 / KD of variant;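 also: relative to parent M103205H795-SG1 carrying the SG1 human heavy chain constant region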
T8 construct: also called cyno FcγRIIIaS; cynoFcγRIIIaS; not shown: His-tag added to C-terminus
T8 sequence (A3RFZ7 21-206): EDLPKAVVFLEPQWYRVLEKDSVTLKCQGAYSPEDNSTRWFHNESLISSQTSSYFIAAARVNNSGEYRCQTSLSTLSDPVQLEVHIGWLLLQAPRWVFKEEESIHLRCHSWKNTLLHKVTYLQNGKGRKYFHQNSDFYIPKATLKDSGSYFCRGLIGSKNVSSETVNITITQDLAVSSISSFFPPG

[2] = molecular target: T1, cynomolgus monkey FcγRIIb extracellular …; assay: SPR (BIACORE); KD of SG1 / KD of variant;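 also: relative to parent M103205H795-SG1 carrying the SG1 human heavy chain constant region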
[3] = molecular target: T2, human FcγRIIb extracellular domain, …; assay: SPR (BIACORE); KD of SG1 / KD of variant;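 also: relative to parent M103205H795-SG1 carrying the SG1 human heavy chain constant region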
[4] = molecular target: T3, cynomolgus monkey FcγRIIa1 …; assay: SPR (BIACORE); KD of SG1 / KD of variant;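 also: relative to parent M103205H795-SG1 carrying the SG1 human heavy chain constant region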
[5] = molecular target: T4, cynomolgus monkey FcγRIIa3 …; assay: SPR (BIACORE); KD of SG1 / KD of variant
[6] = molecular target: T5, cynomolgus monkey FcγRIIa2 …; assay: SPR (BIACORE); KD of SG1 / KD of variant
[7] = molecular target: T6, human FcγRIIaR extracellular domain, …; assay: SPR (BIACORE), antibody captured, FcγR analyte
Protocol: (§1) The kinetic analysis of interactions between these antibodies and FcγR was carried out using BIACORE® T200 or BIACORE® 4000 (GE Healthcare). HBS-EP+ (GE Healthcare) was used as the running buffer, and the measurement temperature was set to 25° C. A chip produced by immobilizing Protein A. Protein A/G or mouse anti-human IgG kappa light chain (BD Biosciences) onto a Series S Sensor Chip CM4 or CM5 (GE Healthcare) by the amine-coupling method was used. […] After the measurement, the antibody captured on the chip was washed off by allowing reaction with 10 mM glycine-HCl, pH1.5 and 25 mM NaOH so that the chip was regenerated and used repeatedly. The sensorgrams obtained as measurement results were analyzed by the 1:1 Langmuir binding model using the BIACORE® Evaluation Software to calculate the binding rate constant ka (L/mol/s) and dissociation rate constant kd (l/s), and the dissociation constant KD (mol/L) was calculated from these values. […] Regarding such interactions, KD values were calculated using the following 1:1 binding model described in BIACORE® T100 Software Handbook BR1006-48 Edition AE.
(§2) The behavior of interacting molecules according to the 1:1 binding model on BIACORE® can be described by Equation 1: Req=C·R max/(KD+C)+RI, wherein, Req is a plot of steady-state binding levels to analyte concentration. C is concentration, RI is bulk refractive index contribution in the sample, and Rmax is analyte binding capacity of the surface. When this equation is rearranged, KD can be expressed as Equation 2: KD=C·Rmax/(Req−RI)−C. KD can be calculated by substituting the values of Rmax, RI, and C into Equation 1 or Equation 2. From the current measurement conditions, RI=0, C=2 μmol/L can be used.

[8] = molecular target: T7, human FcγRIIaH extracellular domain, …; assay: SPR (BIACORE), antibody captured, FcγR analyte
Protocol: as §1, §2

| KD fold (SG1 = 1) [1] | KD fold (SG1 = 1) [2] | KD fold (SG1 = 1) [3] | KD fold (SG1 = 1) [4] | KD fold (SG1 = 1) [5] | KD fold (SG1 = 1) [6] | Kd [7] | Kd [8] | Binder |
| --- | --- | --- | --- | --- | --- | --- | --- | --- |
| 1 fold | 1 fold | 1 fold | 1 fold | 1 fold | 1 fold | 1100 nM | 690 nM | B1 |
| 0.07 fold | 5.1 fold | 3.8 fold | 3.5 fold | 8.9 fold | 6.7 fold | 1800 nM | 1000 nM | B2 |
| 0.07 fold | 5.8 fold | 6.4 fold | 3.6 fold | 7.7 fold | 4.6 fold | 1200 nM | 670 nM | B3 |
| 0.06 fold | 7.2 fold | 8.2 fold | 3.6 fold | 5.7 fold | 4.6 fold | 1300 nM | 470 nM | B4 |
| 0.11 fold | 5.1 fold | 9.4 fold | 2.9 fold | 4.7 fold | 4.3 fold | 870 nM | 490 nM | B5 |
| 0.09 fold | 4.7 fold | 7.8 fold | 2.5 fold | 4.5 fold | 3.9 fold | 1100 nM | 570 nM | B6 |
| 0.24 fold | 2.8 fold | 2 fold | 1.6 fold | 6.3 fold | 3 fold | 290 nM | 290 nM | B7 |
| 0.06 fold | 4.2 fold | 4.2 fold | 2.3 fold | 4.4 fold | 3.6 fold | 1900 nM | 910 nM | B8 |
